{"source": "paper PMC5872055", "about": "“A Low-Cost Inkjet-Printed Aptamer-Based Electrochemical Biosensor for the Selective Detection of Lysozyme”", "binders": {"B1": {"name": "anti-lysozyme aptamer (30-mer) (ssDNA)", "DNA": "ATCAGGGCTAAAGAGTGCAGAGTTACTTAG"}}, "molecular_target": "lysozyme (chicken (egg white), UniProt P00698 19-147)", "sequence (P00698 19-147)": "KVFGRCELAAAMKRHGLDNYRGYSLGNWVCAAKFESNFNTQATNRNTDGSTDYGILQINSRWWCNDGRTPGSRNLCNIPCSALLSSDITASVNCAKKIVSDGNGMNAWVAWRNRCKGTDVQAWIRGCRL", "experiment": "electrochemical impedance spectroscopy (Rct decrease); 0-20 ug/mL lysozyme, 15 min; sensor LOD 90 ng/mL (not a Kd); EIS: proteins in 50 mM phosphate buffer (PBS) pH 7.4, 15 min incubation, rinse with PBS and DI water, then ferro-/ferricyanide read-out; SWV: 10 mM PBS; temperature not stated", "details": "protein: commercial"}
{"binder": "B1", "values": [{"measurement": "binding result", "result": "binds"}]}
